Patent US12091454B2, “Humanized anti-human neurotensin receptor 1 antibodies and their uses” (DEVELOPMENT CENTER FOR BIOTECHNOLOGY, priority 2022, dated 2024)

B1: 7C3 HuHd: humanized anti-NTSR1 antibody, 7C3 HuVH paired with 7C3 HdVL (antibody, V domains shown)
VH: QVQLVQSGAEVKKPGASVKVSCKASGYTFTSSWIHWVRQAPGQGLEWMGQIRPNSGNTYYNEKFKVRVTMTRDTSTSTVYMELSSLRSEDTAVYYCARYYYGFDYWGQGTLVTVSS
VL: DIQMTQSPSSLSASVGDRVTITCRSSQSIVHSNGNTYLEWYQQKPGKAPKLLIYKVSNRFSGVPSRFSGSGSGTDFTLTISSLQPEDFATYYCFQGSHLPWTFGQGTKVEIK
B2: 7C3 HuHu: humanized anti-NTSR1 antibody, 7C3 HuVH (SEQ ID NO: 13) and 7C3 HuVL (SEQ ID NO: 14) (antibody, V domains shown)
VH: B1 VH
VL: DIVMTQTPLSLSVTPGQPASISCRSSQSIVHSNGNTYLEWYLQKPGQSPQLLIYKVSNRFSGVPDRFSGSGSGTDFTLKISRVEAEDVGVYYCFQGSHLPWTFGQGTKVEIK
B3: 7C3 MM: mouse-human chimera anti-NTSR1 antibody, m7C3 VH (SEQ ID NO: 7) and m7C3 VL (SEQ ID NO: 8) (antibody, V domains shown)
VH: QVQLQQPGSVLVRPGDSVMLSCKASGYTFTSSWIHWAKQRPGQGPEWIGQIRPNSGNTYYNEKFKVKATLTVDTSSSTAYVDLSSLTSEDSAVYYCARYYYGFDYWGQGTTVTVSS
VL: DVLMTQTPLSLPVSLGDQASISCRSSQSIVHSNGNTYLEWYLQKPGQSPKLLIYKVSNRFSGVPDRFSGSGSGTDFTLKISRVEAEDLGVYYCFQGSHLPWTFGGGTKLEIK
B4: 7C3 HdHd: humanized anti-NTSR1 antibody, 7C3 HdVH (SEQ ID NO: 11) and 7C3 HdVL (SEQ ID NO: 12) (antibody, V domains shown)
VH: EVQLVESGGGLVQPGGSLRLSCAASGYTFTSSWIHWVRQAPGKGLEWVAQIRPNSGNTYYNEKFKVRFTISRDDSKNTLYLQMNSLRAEDTAVYYCARYYYGFDYWGQGTLVTVSS
VL: B1 VL
B5: 7C3 HdHu: humanized anti-NTSR1 antibody, presumably 7C3 HdVH paired with 7C3 HuVL (antibody, V domains shown)
VH: B4 VH
VL: B2 VL

Test system: NTSR1 expressing cells, FaDu
Assay: Cell-binding assay by FACS
Design: species or system human
Settings: concentration of 1 μg/mL
Experimental: Anti-NTSR1 antibodies were used to detect cells that express NTSR1 on the cell surfaces, for example using FACS. NTSR1 expressing cells, FaDu, were harvested and re-suspended in 5% PBS/FBS buffer. The cells (1×10^5) were incubated with anti-NTSR1 antibody (1-10 μg/ml) or negative control, at 4° C. for 1 hr, and then stained with goat anti-human IgG FITC conjugate ( 1/1000) at 4° C. for 1 hr. For each assay, two additional controls were prepared; one without primary antibody and the other one with absence of any antibody. All treated samples were analyzed with FACSVERSE™ (BECTON DICKINSON®) and the results were processed by FACSUITE™ software (BECTON DICKINSON®).

Molecule	binding to FaDu cells
B1	do not bind well
B2	do not bind well
B3	do not bind well

Same assay, conditions: concentration of 10 μg/mL

Molecule	binding to FaDu cells
B1	do not bind significantly
B2	do not bind significantly
B3	do not bind significantly

Test system: NTSR1 linear L2-biotin protein
Assay: Binding affinity of the humanized antibodies by ELISA
Design: species or system human
Settings: FIG. 4
Experimental: ELISA plates were coated with 1-2 μg/100 μL per well of NTSR1 linear L2-biotin protein. Wells were rinsed for 3 times with PBS and blocked with 300 μL of 5% MPBS per well for 2 hr at 37° C. After washing with PBS, wells were incubated with serial diluted NTSR1 antibodies in 5% MPBS for 1.5 hours at 37° C. The plates were washed and goat polyclonal anti-human IgG-HRP antibody (1:10,000) (JACKSON IMMUNORESEARCH®) was added into each well. The OD at 650 nm and at 450 nm was read. Readings were obtained by subtracting OD650 from OD450 and the binding affinities of antibodies were calculated by non-linear regression with Prism software (GRAPHPAD®).

binding signal for NTSR1 in binding ELISA	Molecule
much lower binding signals	B4
much lower binding signals	B5
good binding signal	B1
good binding signal	B2

Same assay, conditions: binding ELISA, non-linear regression

Kd	Molecule
0.294 nM	B2
0.676 nM	B3
